Experimental data from patent US20170291948A1 (SAMSUNG LIFE PUBLIC WELFARE FOUNDATION, published 2017).
Residue numbers refer to the chain shown, from its start. One block for each binder: values may come before it.

Columns and labels:
[1] = target: NRP1 expressed on the surface of cancer cells (NRP1-overexpressing patient-derived cells); U87MG glioblastoma … (human, UniProt O14786 22-923); experiment: cell-based or functional assay
human NRP1 protein = target: T1, human NRP1 protein (human, UniProt O14786-2 22-644, limits assumed); experiment: IgG on human NRP1; text says ELISA and SPR, the legend of FIG. 14 says ELISA
T1 construct: Protein used for ELISA coating (200 ng per well) and SPR; also called Neuropilin 1
T1 sequence (looked up): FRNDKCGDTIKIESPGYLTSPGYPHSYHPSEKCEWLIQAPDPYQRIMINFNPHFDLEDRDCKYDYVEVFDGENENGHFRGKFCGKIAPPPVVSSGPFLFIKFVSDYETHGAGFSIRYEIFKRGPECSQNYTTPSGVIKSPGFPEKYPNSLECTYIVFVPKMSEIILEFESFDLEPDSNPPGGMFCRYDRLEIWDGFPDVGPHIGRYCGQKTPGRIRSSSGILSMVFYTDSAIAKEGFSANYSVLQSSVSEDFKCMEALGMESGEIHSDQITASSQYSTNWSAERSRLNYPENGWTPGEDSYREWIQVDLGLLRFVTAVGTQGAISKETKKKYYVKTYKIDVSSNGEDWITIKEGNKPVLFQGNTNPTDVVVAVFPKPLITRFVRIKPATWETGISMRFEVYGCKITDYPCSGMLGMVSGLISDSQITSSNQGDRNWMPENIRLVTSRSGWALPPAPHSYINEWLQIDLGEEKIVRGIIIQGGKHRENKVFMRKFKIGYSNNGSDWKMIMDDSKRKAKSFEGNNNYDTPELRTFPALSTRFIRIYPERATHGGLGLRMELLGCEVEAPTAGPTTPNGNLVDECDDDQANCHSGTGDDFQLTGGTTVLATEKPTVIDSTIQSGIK

inhibition of tumor cells migration in patient-derived cells [1]: > 50%
B1: IRCR-101 (3H10) anti-NRP1 IgG (antibody, V domains shown)
VH: EVQLLESGGGLVQPGGSLRLSCAASGFTFSSYYMSWVRQAPGKGLEWVSAISPGSSNKYYADSVKGRFTISRDNSKNTLYLQMNSLRAEDTAVYYCARRKYMFDYWGQGTLVTVSS
VL: QSVLTQPPSASGTPGQRVTISCTGSSSNIGNNDVYWYQQLPGTAPKLLIYSDSNRPSGVPDRFSGSKSGTSASLAISGLRSEDEADYYCASWDSSLSGYVFGGGTKLTVL

inhibition of tumor cells migration in patient-derived cells [1]: > 50%
B2: 1A03 anti-NRP1 IgG (antibody, V domains shown)
VH: B1 VH with K65Q, Y101K, M102S
VL: B1 VL with T23S, S25P, Y35S, S53N, A90G, S91A, D93V, S94A, G98A

inhibition of tumor cells migration in patient-derived cells [1]: 40%
Kd (human NRP1 protein): 0.6 nM
B3: 4F12 anti-NRP1 IgG (antibody, V domains shown)
VH: B1 VH with S31G, Y33A, A50G, S56G, N57S, K58T, R98K, Y101T, M102R
VL: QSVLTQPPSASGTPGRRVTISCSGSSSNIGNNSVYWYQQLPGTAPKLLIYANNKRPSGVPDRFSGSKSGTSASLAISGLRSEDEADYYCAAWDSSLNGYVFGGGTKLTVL
notes: scFv converted to IgG and made in the Expi 293F system, 150 kD; also called 4F12 antibody
